Ends that are not written are not given here.
Molecular target: T1, recombinant EcPyAMA1 (P. yoelii YM AMA1 residues 59-479 with a C-terminal histidine tag, E. coli, refolded) (Plasmodium yoelii YM)
T1 construct: not shown: C-terminal histidine tag
T1 chain: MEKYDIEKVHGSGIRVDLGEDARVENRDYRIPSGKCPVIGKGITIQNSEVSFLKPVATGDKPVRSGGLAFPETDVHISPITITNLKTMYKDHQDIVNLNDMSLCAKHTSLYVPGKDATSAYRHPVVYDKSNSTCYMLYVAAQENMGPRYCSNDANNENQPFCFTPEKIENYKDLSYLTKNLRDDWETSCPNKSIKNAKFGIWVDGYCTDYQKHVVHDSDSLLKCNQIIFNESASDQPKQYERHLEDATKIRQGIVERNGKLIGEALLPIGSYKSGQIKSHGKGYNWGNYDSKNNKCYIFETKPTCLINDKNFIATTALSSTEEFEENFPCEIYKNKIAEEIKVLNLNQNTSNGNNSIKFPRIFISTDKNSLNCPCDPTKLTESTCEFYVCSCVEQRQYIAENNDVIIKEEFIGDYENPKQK
Experiment: binding of RON2L peptide to PyAMA1, FIG. 3E

B1: PyRON2L peptide with the two cysteines mutated to alanines (Cys 1856 and 1868 to Ala) (peptide)
peptide: DITQHATDIGMGPSTSAYTSLLPPPKSIAIQQTVKTVLTNSTLASMK-NH2
notes: they are the two cysteines of the peptide; also called RON2Lc/a; c/a
  binding result: no binding

Source: US20160158332A1 (US Dept. of Health and Human Services, published 2016)
